The results in this text go back to publication PMC8225759, “A GH89 human α-N-acetylglucosaminidase (hNAGLU) homologue from gut microbe Bacteroides thetaiotaomicron capable of hydrolyzing heparosan oligosaccharides” (AMB Express, 2021).

Substrate in data set [1]: CC(=O)N[C@H]1[C@@H](Oc2ccc3c(C)cc(=O)oc3c2)O[C@H](CO)[C@@H](O)[C@@H]1O
Description: purified protein. As to conditions: pH 5.0; 30.0 °C.

Substrate in data set [2]: CC(=O)N[C@H]1[C@@H](O[C@H]2[C@H](O)[C@@H](O)[C@H](OCCCNC(=O)OCC3c4ccccc4-c4ccccc43)O[C@@H]2C(=O)O)O[C@H](CO)[C@@H](O)[C@@H]1O
The data set can be described thus: purified protein. The settings on record: pH 5.0; 30.0 °C.

B1: (Bacteroides thetaiotaomicron VPI-5482) (protein)
chain: TGPPVLKEMCQRLFPRHAQSFLFELLTDSIDTDRFILESSQGKIRIKGNNRNSLAAGLNHYLKNYCHTHVSWYASETVEMPDVLPEIPQPVYIRSKCDNRFFLNYCTFGYTMPYWKWQDWERLIDWMALNGVTMPLAITGQESIWYKVWTDMGLSDEQVRSYFTGPAHLPWHRMSNVDFWQSPLPQSWLKDQEELQKRILEREREFDMTPVLPAFAGHVPAELKTIYPNAKIYQMSQWGGFDEKYRSHFIDPMDSLYSIIQRRFLEEQTKVYGTDHIYGIDPFNEVDSPDWSEDFLANVSSKIYESIHQVDSAAQWLQMTWMFFYDKKKWTQPRIRSFLKAVPDNKLILLDYYCDHTEIWRNTEKYYGNPYIWCYLGNFGGNTMIAGNLNDIDFKIKRLFKEGGDNVYGLGATLEGFDVNPLMYEFVFDQAWDYPVTTDQWITNWSMCRGGNQDANIIKAWRALHQKIYTEHATCGQSVLMNARPRLTGTKSWNTNPGIHYANNDLWQIWKELLKARNINNSDFRFDVINIGRQVLGNLFSEYRDQFTACYNRKDTTGMREWSTRMDNLLLDVDRLLSCDATLSIGKWLQDARNCGATVSEKDYYEENARCILTVWGQQDTQLNDYANRGWGGLTRSFYRERWKRFTDGVIAAVSEDKPFDEDKFHQDITQFEYNWTLQKDSFPIVSEEDPIQIADSLILKYDTYFTKAQ
Take B1: in “purified protein [1]”, the Km entry was “(4.6 ± 0.4) × 10^−3 mM”, the catalytic constant (kcat) came to 3.68 ± 0.07 s⁻¹ and the kcat/Km came out at 800000 M⁻¹ s⁻¹. For the same protein, in “purified protein [2]”, the Km is 2190 ± 160 µM, the kcat was 3.57 ± 0.09 s⁻¹ and the catalytic efficiency (kcat/Km) turned out to be 1630 M⁻¹ s⁻¹.
